Data from FireProtDB (doi:10.1093/protein/14.11.891).

B1: Sialidase, P29768 (parent)
chain: MTVEKSVVFKAEGEHFTDQKGNTIVGSGSGGTTKYFRIPAMCTTSKGTIVVFADARHNTASDQSFIDTAAARSTDGGKTWNKKIAIYNDRVNSKLSRVMDPTCIVANIQGRETILVMVGKWNNNDKTWGAYRDKAPDTDWDLVLYKSTDDGVTFSKVETNIHDIVTKNGTISAMLGGVGSGLQLNDGKLVFPVQMVRTKNITTVLNTSFIYSTDGITWSLPSGYCEGFGSENNIIEFNASLVNNIRNSGLRRSFETKDFGKTWTEFPPMDKKVDNRNHGVQGSTITIPSGNKLVAAHSSAQNKNNDYTRSDISLYAHNLYSGEVKLIDDFYPKVGNASGAGYSCLSYRKNVDKETLYVVYEANGSIEFQDLSRHLPVIKSYN

Variants of: B1
Details: Salmonella typhimurium (strain LT2 / SGSC1412 / ATCC 700720), pH 7, CD, Potassium phosphate 10 mM, reversible: yes, structure 1DIL, whole UniProt chain shown; for ddG of mutation (higher = less stable) / denaturant midpoint (higher = more stable) / unfolding free energy: 25 °C, GdnHCl; for Tm / change of melting temperature, mutant - wild type (higher = more stable): Thermal

Variant | ddG of mutation (higher = less stable) | denaturant midpoint (higher = more stable) | unfolding free energy | Tm | change of melting temperature, mutant - wild type (higher = more stable)
A69V | -0.62 kcal/mol | 1.42 M | 4.86 kcal/mol | 60 °C | 3 °C
A53L | -0.81 kcal/mol | 1.64 M | 5.05 kcal/mol | 62 °C | 5 °C
